Usually Kd stands for the constant that tells how readily two partners part at equilibrium. Low readings indicate tighter binding, high ones weaker binding. One may read the stoichiometry N as a count of units in the complex or per binding partner.

Experimental findings from publication doi:10.1101/2020.07.30.230052 (bioRxiv, 2020) are described below.

B1: PBP4 (penicillin binding protein 4, DD-carboxy/endopeptidase) of Escherichia coli, wild type, purified (enzyme)
chain: ANVDEYITQLPAGANLALMVQKVGASAPAIDYHSQQMALPASTQKVITALAALIQLGPDFRFTTTLETKGNVENGVLKGDLVARFGADPTLKRQDIRNMVATLKKSGVNQIDGNVLIDTSIFASHDKAPGWPWNDMTQCFSAPPAAAIVDRNCFSVSLYSAPKPGDMAFIRVASYYPVTMFSQVRTLPRGSAEAQYCELDVVPGDLNRFTLTGCLPQRSEPLPLAFAVQDGASYAGAILKDELKQAGITWSGTLLRQTQVNEPGTVVASKQSAPLHDLLKIMLKKSDNMIADTVFRMIGHARFNVPGTWRAGSDAVRQILRQQAGVDIGNTIIADGSGLSRHNLIAPATMMQVLQYIAQHDNELNFISMLPLAGYDGSLQYRAGLHQAGVDGKVSAKTGSLQGVYNLAGFITTASGQRMAFVQYLSGYAVEPADQRNRRIPLVRFESRLYKDIYQNN

The target in data set [1] is LpoA, full length version, purified (Escherichia coli) (UniProt P45464). Description: MST.
Chain of LpoA, full length version, purified (Escherichia coli) (P45464 27-678): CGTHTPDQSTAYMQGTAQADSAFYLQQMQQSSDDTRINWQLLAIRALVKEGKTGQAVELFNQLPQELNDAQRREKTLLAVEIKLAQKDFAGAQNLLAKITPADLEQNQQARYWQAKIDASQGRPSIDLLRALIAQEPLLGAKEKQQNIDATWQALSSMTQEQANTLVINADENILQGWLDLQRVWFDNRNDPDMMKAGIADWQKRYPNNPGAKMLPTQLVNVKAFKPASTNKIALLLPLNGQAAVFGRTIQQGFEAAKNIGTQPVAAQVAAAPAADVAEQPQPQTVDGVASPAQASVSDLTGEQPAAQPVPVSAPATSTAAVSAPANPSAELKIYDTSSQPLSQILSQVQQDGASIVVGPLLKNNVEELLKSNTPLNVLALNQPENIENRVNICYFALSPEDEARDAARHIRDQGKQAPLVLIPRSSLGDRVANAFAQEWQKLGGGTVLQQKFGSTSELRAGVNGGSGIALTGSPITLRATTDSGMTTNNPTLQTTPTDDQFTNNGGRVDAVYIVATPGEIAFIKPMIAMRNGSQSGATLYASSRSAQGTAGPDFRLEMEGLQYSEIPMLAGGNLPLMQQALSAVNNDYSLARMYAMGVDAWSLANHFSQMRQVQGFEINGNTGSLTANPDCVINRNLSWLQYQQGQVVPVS
Data set [2] addresses N-terminal domain of LpoA (LpoA^N, residues G28-T256) (Escherichia coli) (UniProt P45464). Nature of the data set: MST.
Data set [3] deals with PBP4 lacking domain 3 (PBP4ΔD3), purified (Escherichia coli) (UniProt P24228). Description: AUC.
The data set “AUC” concerns the molecule itself. Description: AUC.
The target of data set [4] is B1. Description: pull-down.

Chain of N-terminal domain of LpoA (LpoA^N, residues G28-T256) (Escherichia coli) (P45464 28-256): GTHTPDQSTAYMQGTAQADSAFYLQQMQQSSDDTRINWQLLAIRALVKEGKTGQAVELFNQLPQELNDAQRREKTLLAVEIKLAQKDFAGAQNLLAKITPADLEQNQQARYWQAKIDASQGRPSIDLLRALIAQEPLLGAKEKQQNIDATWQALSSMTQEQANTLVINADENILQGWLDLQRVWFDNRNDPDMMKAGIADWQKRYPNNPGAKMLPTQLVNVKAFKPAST

As for “PBP4 lacking domain 3 (PBP4ΔD3), purified (from UniProt P24228 21-477) (enzyme)”, in data set [1], the Kd was 153 nM. The same molecule came in with a fold decrease of app. KD against wild-type PBP4 in data set [2] of 50 fold. Moreover, the stoichiometry N in data set [3] turned out to be 2.

Consider B1, for which the “stoichiometry N” value in “AUC” was found to be 2.

B2: Oligo-histidine tagged NlpI (His-NlpI) (natural protein, Escherichia coli, UniProt P0AFB1 19-294, looked up)
chain: CSNTSWRKSEVLAVPLQPTLQQEVILARMEQILASRALTDDERAQLLYERGVLYDSLGLRALARNDFSQALAIRPDMPEVFNYLGIYLTQAGNFDAAYEAFDSVLELDPTYNYAHLNRGIALYYGGRDKLAQDDLLAFYQDDPNDPFRSLWLYLAEQKLDEKQAKEVLKQHFEKSDKEQWGWNIVEFYLGNISEQTLMERLKADATDNTSLAEHLSETNFYLGKYYLSLGDLDSATALFKLAVANNVHNFVEHRYALLELSLLGQDQDDLAESDQQ
With B2, the binding result in data set [4] is “binds”.
